In the supplement of paper PMC9732359:
± gives the uncertainty stated by the source.

Assay: protein stability index of a GFP-peptide fusion (yeast GPS) (PSI 1-4); higher = more stable; sorted into four equal gates, so the index is relative within each strain
Procedure, shortened: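 Sequencing reads from sorted gates were used to score each peptide. The library consisted of tiled 17-residue yeast protein peptides fused downstream of GFP on a Cherry-expressing plasmid, pooled and carried in yeast. Mid-log cultures in leucine-free medium were split into four equal gates by GFP/Cherry ratio, and each gate's plasmids were PCR-amplified and Illumina-sequenced. The protein stability index adds up, over all gates, the read frequency multiplied by the gate number.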

SHTGLIRKYGLNICRQC [RPS29A]
protein stability index (doa10∆): 1.51 ± 0.047
protein stability index (pdr5∆): 1.58 ± 0.05
protein stability index (san1∆): 1.51 ± 0.093
protein stability index (ubr1∆): 1.89 ± 0.053

PQINILQPIKGESARRF [RPC40]
protein stability index (doa10∆): 2.17 ± 0.096
protein stability index (pdr5∆): 2.58 ± 0.1
protein stability index (san1∆): 2.43 ± 0.12
protein stability index (ubr1∆): 2.88 ± 0.12

SSENNQIILAYIKYNIL [SRP68]
protein stability index (doa10∆): 3.06 ± 0.065
protein stability index (pdr5∆): 2.82 ± 0.074
protein stability index (san1∆): 2.92 ± 0.076
protein stability index (ubr1∆): 2.88 ± 0.062

HSGELMRQQSKELQQLQ [SMC1]
protein stability index (doa10∆): 2.89 ± 0.15
protein stability index (pdr5∆): 2.98 ± 0.13
protein stability index (san1∆): 2.9 ± 0.11
protein stability index (ubr1∆): 2.7 ± 0.27

MTVTFLILAGQVKVKGQ [YCS4]
protein stability index (doa10∆): 2.34 ± 0.083
protein stability index (pdr5∆): 2.27 ± 0.074
protein stability index (san1∆): 2.3 ± 0.086
protein stability index (ubr1∆): 1.83 ± 0.057

DDDDEDDDEIVMPVPNV [SKP1]
protein stability index (doa10∆): 3.3 ± 0.064
protein stability index (pdr5∆): 3.06 ± 0.099
protein stability index (san1∆): 3.08 ± 0.11
protein stability index (ubr1∆): 3.21 ± 0.11

AYSNTNTNTENENRNTG [SNF11]
protein stability index (doa10∆): 3.1 ± 0.14
protein stability index (pdr5∆): 2.95 ± 0.065
protein stability index (san1∆): 2.95 ± 0.071
protein stability index (ubr1∆): 2.95 ± 0.072

IRGKILTGTVVSTKMHR [RPS11A]
protein stability index (doa10∆): 3 ± 0.066
protein stability index (pdr5∆): 2.99 ± 0.051
protein stability index (san1∆): 2.79 ± 0.052
protein stability index (ubr1∆): 2.9 ± 0.039

LYQLFKTCIQGINSPLS [YJL039C/NUP192]
protein stability index (doa10∆): 1.83 ± 0.12
protein stability index (pdr5∆): 2.05 ± 0.087
protein stability index (san1∆): 1.64 ± 0.16
protein stability index (ubr1∆): 2.04 ± 0.11

EFSEHTFVERLPNETIN [DIS3]
protein stability index (doa10∆): 3.34 ± 0.16
protein stability index (pdr5∆): 2.47 ± 0.18
protein stability index (san1∆): 3.36 ± 0.11
protein stability index (ubr1∆): 3.23 ± 0.12

SGKSNTSNDASNKKETK [ITC1]
protein stability index (doa10∆): 3.14 ± 0.076
protein stability index (pdr5∆): 3.26 ± 0.073
protein stability index (san1∆): 3.29 ± 0.058
protein stability index (ubr1∆): 3.18 ± 0.06

NNVTSNPSEFTPNMVNS [SSN2]
protein stability index (doa10∆): 2.93 ± 0.063
protein stability index (pdr5∆): 3.03 ± 0.053
protein stability index (san1∆): 2.66 ± 0.09
protein stability index (ubr1∆): 3.1 ± 0.05

DDMVEYEDGTPATTSQM [CYT1]
protein stability index (pdr5∆): 2.76 ± 0.14
protein stability index (san1∆): 3.02 ± 0.19

LPLISTDVLEISKQRTF [YMR129W/POM152]
protein stability index (doa10∆): 2.17 ± 0.068
protein stability index (pdr5∆): 2.74 ± 0.06
protein stability index (san1∆): 2.46 ± 0.062
protein stability index (ubr1∆): 2.51 ± 0.049

RVIDDNNRRRSRKRGGE [SIR3]
protein stability index (doa10∆): 3.57 ± 0.086
protein stability index (pdr5∆): 3.36 ± 0.11
protein stability index (san1∆): 3.21 ± 0.11
protein stability index (ubr1∆): 3.46 ± 0.084

VENYETSSAFFYQQVHK [SIR4]
protein stability index (doa10∆): 2.75 ± 0.04
protein stability index (pdr5∆): 2.57 ± 0.042
protein stability index (san1∆): 2.43 ± 0.045
protein stability index (ubr1∆): 2.52 ± 0.03

SPNPTLQPVIPGGAASK [SNF5]
protein stability index (doa10∆): 3.23 ± 0.093
protein stability index (pdr5∆): 3.24 ± 0.082
protein stability index (san1∆): 3.19 ± 0.058
protein stability index (ubr1∆): 2.88 ± 0.059

KKMVYVLDSMTKEELES [SRP54]
protein stability index (doa10∆): 3.02 ± 0.086
protein stability index (pdr5∆): 2.85 ± 0.085
protein stability index (san1∆): 2.92 ± 0.091
protein stability index (ubr1∆): 3.04 ± 0.069

YAVKAVENGTTSIGIKC [PRE10]
protein stability index (doa10∆): 2.04 ± 0.11
protein stability index (pdr5∆): 2.02 ± 0.076
protein stability index (san1∆): 1.36 ± 0.21
protein stability index (ubr1∆): 2.77 ± 0.19

LGKGGAKRHRKILRDNI [HHF1]
protein stability index (doa10∆): 3.36 ± 0.26
protein stability index (pdr5∆): 3.21 ± 0.17
protein stability index (san1∆): 3.4 ± 0.19
protein stability index (ubr1∆): 2.99 ± 0.14

FQAQQAQQAQQAQQAQQ [SNF2]
protein stability index (doa10∆): 2.86 ± 0.052
protein stability index (pdr5∆): 3 ± 0.046
protein stability index (san1∆): 2.85 ± 0.035
protein stability index (ubr1∆): 2.73 ± 0.035

RLNPYAKVFAAEKLGSK [RPL4A]
protein stability index (doa10∆): 2.09 ± 0.14
